The text below walks through data of article doi:10.1101/2024.02.23.581731 (bioRxiv, 2024).

Data set [1] deals with the molecule itself. Kind of data set: cryo-EM structure.
Data set [2] deals with the molecule itself. In words: cryo-EM structure. The source holds these as a separate data set.

“And” between values parts separate entries of the source, which are not always exact repeats. Equal entries are not always repeated. Where two headings read alike, the source gives them in different places.

B1: mouse wild-type 5-HT3A receptor (receptor, UniProt P23979 24-489, looked up)
chain: SRRRATQARDTTQPALLRLSDHLLANYKKGVRPVRDWRKPTTVSIDVIMYAILNVDEKNQVLTTYIWYRQYWTDEFLQWTPEDFDNVTKLSIPTDSIWVPDILINEFVDVGKSPNIPYVYVHHRGEVQNYKPLQLVTACSLDIYNFPFDVQNCSLTFTSWLHTIQDINITLWRSPEEVRSDKSIFINQGEWELLEVFPQFKEFSIDISNSYAEMKFYVIIRRRPLFYAVSLLLPSIFLMVVDIVGFCLPPDSGERVSFKITLLLGYSVFLIIVSDTLPATAIGTPLIGVYFVVCMALLVISLAETIFIVRLVHKQDLQRPVPDWLRHLVLDRIAWILCLGEQPMAHRPPATFQANKTDDCSGSDLLPAMGNHCSHVGGPQDLEKTPRGRGSPLPPPREASLAVRGLLQELSSIRHFLEKRDEMREVARDWLRVGYVLDRLLFRIYLLAVLAYSITLVTLWSIWHYS
The term stoichiometry N denotes a count of units in the complex or per binding partner. In the case of B1, the “stoichiometry N” value in the data set “cryo-EM structure [1]” came to 5.

B2: human wild-type 5-HT3A receptor (receptor, UniProt P46098 24-478, looked up)
chain: RRSRNTTRPALLRLSDYLLTNYRKGVRPVRDWRKPTTVSIDVIVYAILNVDEKNQVLTTYIWYRQYWTDEFLQWNPEDFDNITKLSIPTDSIWVPDILINEFVDVGKSPNIPYVYIRHQGEVQNYKPLQVVTACSLDIYNFPFDVQNCSLTFTSWLHTIQDINISLWRLPEKVKSDRSVFMNQGEWELLGVLPYFREFSMESSNYYAEMKFYVVIRRRPLFYVVSLLLPSIFLMVMDIVGFYLPPNSGERVSFKITLLLGYSVFLIIVSDTLPATAIGTPLIGVYFVVCMALLVISLAETIFIVRLVHKQDLQQPVPAWLRHLVLERIAWLLCLREQSTSQRPPATSQATKTDDCSAMGNHCSHMGGPQDFEKSPRDRCSPPPPPREASLAVCGLLQELSSIRQFLEKRDEIREVARDWLRVGSVLDKLLFHIYLLAVLAYSITLVMLWSIWQYA
Take B2: in “cryo-EM structure [2]”, the “stoichiometry N” value is 5 and 4.
